Experimental data reported in patent US20070275903A1 (Bristol-Myers Squibb, published 2007).
Blank lines part the entries; values can stand above or below the molecule they belong to. Starred links: 1 amine or outer side, 2 acyl side, 3 side chain; linkers in the order of their positions; H or OH if unused. Suc = O=C(CCC(=O)[*:2])[*:1]; Dox = doxorubicin

Assays:
Suc-Leu-Ala-Gly-Dox = test system: T1, Suc-Leu-Ala-Gly-Dox
T1 sequence: LAG

Suc-Leu-Ala-Leu-Dox = test system: T2, Suc-Leu-Ala-Leu-Dox
T2 sequence: LAL

Suc-βAla-Leu-Ala-Leu-Dox = test system: T3, Suc-βAla-Leu-Ala-Leu-Dox
T3 sequence: ALAL

Suc-Met-Gly-Phe-Dnr = test system: T4, Suc-Met-Gly-Phe-Dnr
T4 sequence: MGF

Suc-Leu-Tyr-Leu-Dox = test system: T5, Suc-Leu-Tyr-Leu-Dox
T5 sequence: LYL

Suc-Met-Ala-Leu-Dnr = test system: T6, Suc-Met-Ala-Leu-Dnr
T6 sequence: MAL

Suc-Tyr-Ala-Ile-Dnr = test system: T7, Suc-Tyr-Ala-Ile-Dnr
T7 sequence: YAI

Suc-Phe-Gly-Leu-Dnr = test system: T8, Suc-Phe-Gly-Leu-Dnr
T8 sequence: FGL

Suc-Leu-Ala-Leu-Dnr = test system: T9, Suc-Leu-Ala-Leu-Dnr
T9 sequence: LAL

Suc-Met-Ala-Leu-Dox = test system: T10, Suc-Met-Ala-Leu-Dox
T10 sequence: MAL

Pyg-Leu-Ala-Leu-Dnr = test system: T11, Pyg-Leu-Ala-Leu-Dnr
T11 sequence: LAL

Suc-Phe-Gly-Phe-Dnr = test system: T12, Suc-Phe-Gly-Phe-Dnr
T12 sequence: FGF

Suc-Leu-Tyr-Leu-Dnr = test system: T13, Suc-Leu-Tyr-Leu-Dnr
T13 sequence: LYL

Suc-Met-Gly-Leu-Dnr = test system: T14, Suc-Met-Gly-Leu-Dnr
T14 sequence: MGL

Suc-Nle-Gly-Phe-Dnr = test system: T15, Suc-Nle-Gly-Phe-Dnr
T15 sequence: XGF

Suc-Phe-Gly-Ile-Dnr = test system: T16, Suc-Phe-Gly-Ile-Dnr
T16 sequence: FGI

Suc-Nle-Ala-Leu-Dnr = test system: T17, Suc-Nle-Ala-Leu-Dnr
T17 sequence: XAL

Suc-Leu-Thr-Leu-Dnr = test system: T18, Suc-Leu-Thr-Leu-Dnr
T18 sequence: LTL

Suc-Met-Gly-Ile-Dnr = test system: T19, Suc-Met-Gly-Ile-Dnr
T19 sequence: MGI

Suc-Tyr-Ala-Leu-Dnr = test system: T20, Suc-Tyr-Ala-Leu-Dnr
T20 sequence: YAL

[1] = biological target: CD10 expressed on Ramos and Namalwa B-cell lines (UniProt P08473 2-750, limits assumed); assay: cell-based or functional assay
Sequence of CD10 expressed on Ramos and Namalwa B-cell lines (P08473 2-750 limits assumed): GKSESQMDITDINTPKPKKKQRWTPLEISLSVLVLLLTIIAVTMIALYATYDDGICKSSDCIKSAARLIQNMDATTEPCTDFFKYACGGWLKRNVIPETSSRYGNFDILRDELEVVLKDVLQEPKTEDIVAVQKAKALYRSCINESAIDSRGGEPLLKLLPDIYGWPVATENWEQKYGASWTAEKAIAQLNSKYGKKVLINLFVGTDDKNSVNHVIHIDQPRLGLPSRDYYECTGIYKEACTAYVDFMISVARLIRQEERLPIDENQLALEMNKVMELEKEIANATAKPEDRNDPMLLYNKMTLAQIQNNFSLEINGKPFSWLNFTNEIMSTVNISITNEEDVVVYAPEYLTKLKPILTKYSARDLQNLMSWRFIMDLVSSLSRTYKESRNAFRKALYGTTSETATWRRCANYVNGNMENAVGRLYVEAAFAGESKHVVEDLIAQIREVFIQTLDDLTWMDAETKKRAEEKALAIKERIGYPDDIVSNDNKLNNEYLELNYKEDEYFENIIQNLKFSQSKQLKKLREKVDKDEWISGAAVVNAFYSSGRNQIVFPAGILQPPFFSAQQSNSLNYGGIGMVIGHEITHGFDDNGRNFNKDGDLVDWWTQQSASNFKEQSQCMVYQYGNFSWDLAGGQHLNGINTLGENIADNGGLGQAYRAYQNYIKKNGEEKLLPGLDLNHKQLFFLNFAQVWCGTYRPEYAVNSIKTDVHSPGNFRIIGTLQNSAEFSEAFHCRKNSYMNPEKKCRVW

Molecule: purified Porcine Kidney CD10 (Elastin Products Company)
% hydrolysis/10 hr (Suc-Leu-Ala-Gly-Dox): 0% | Fraction hydrolyzed relative to standard (Suc-Leu-Ala-Gly-Dox): 0 | % hydrolysis/10 hr (Suc-Leu-Ala-Leu-Dox): 8.3% | Fraction hydrolyzed relative to standard (Suc-Leu-Ala-Leu-Dox): 0.75 | % hydrolysis/10 hr (Suc-βAla-Leu-Ala-Leu-Dox): 10.9% | Fraction hydrolyzed relative to standard (Suc-βAla-Leu-Ala-Leu-Dox): 1

Molecule: trouase (carcinoma cell enzyme preparations; HeLa cell anion exchange fraction pool)
Relative Cleavage % (Suc-Met-Gly-Phe-Dnr): 29% | cleavage by carcinoma enzyme preparations (HPLC, 2 hr at 37 C) (Suc-Met-Gly-Phe-Dnr): cleaved by the trouase under the given conditions | Relative Cleavage % (Suc-Leu-Ala-Gly-Dox): 40% | cleavage by carcinoma enzyme preparations (HPLC, 2 hr at 37 C) (Suc-Leu-Ala-Gly-Dox): cleaved by the trouase under the given conditions | cleavage by carcinoma enzyme preparations (HPLC, 2 hr at 37 C) (Suc-Leu-Tyr-Leu-Dox): cleaved by the trouase under the given conditions | Relative Cleavage % (Suc-Met-Ala-Leu-Dnr): 69% | cleavage by carcinoma enzyme preparations (HPLC, 2 hr at 37 C) (Suc-Met-Ala-Leu-Dnr): cleaved by the trouase under the given conditions | Relative Cleavage % (Suc-Tyr-Ala-Ile-Dnr): 25% | cleavage by carcinoma enzyme preparations (HPLC, 2 hr at 37 C) (Suc-Tyr-Ala-Ile-Dnr): cleaved by the trouase under the given conditions | Relative Cleavage % (Suc-Leu-Ala-Leu-Dox): 62% | cleavage by carcinoma enzyme preparations (HPLC, 2 hr at 37 C) (Suc-Leu-Ala-Leu-Dox): cleaved by the trouase under the given conditions | Relative Cleavage % (Suc-Phe-Gly-Leu-Dnr): 24% | cleavage by carcinoma enzyme preparations (HPLC, 2 hr at 37 C) (Suc-Phe-Gly-Leu-Dnr): cleaved by the trouase under the given conditions | Relative Cleavage % (Suc-Leu-Ala-Leu-Dnr): 76% | cleavage by carcinoma enzyme preparations (HPLC, 2 hr at 37 C) (Suc-Leu-Ala-Leu-Dnr): cleaved by the trouase under the given conditions | Relative Cleavage % (Suc-Met-Ala-Leu-Dox): 49% | cleavage by carcinoma enzyme preparations (HPLC, 2 hr at 37 C) (Suc-Met-Ala-Leu-Dox): cleaved by the trouase under the given conditions | Relative Cleavage % (Pyg-Leu-Ala-Leu-Dnr): 76% | cleavage by carcinoma enzyme preparations (HPLC, 2 hr at 37 C) (Pyg-Leu-Ala-Leu-Dnr): cleaved by the trouase under the given conditions | Relative Cleavage % (Suc-Phe-Gly-Phe-Dnr): 12% | cleavage by carcinoma enzyme preparations (HPLC, 2 hr at 37 C) (Suc-Phe-Gly-Phe-Dnr): cleaved by the trouase under the given conditions | cleavage by carcinoma enzyme preparations (HPLC, 2 hr at 37 C) (Suc-Leu-Tyr-Leu-Dnr): cleaved by the trouase under the given conditions | Relative Cleavage % (Suc-Met-Gly-Leu-Dnr): 55% | cleavage by carcinoma enzyme preparations (HPLC, 2 hr at 37 C) (Suc-Met-Gly-Leu-Dnr): cleaved by the trouase under the given conditions | Relative Cleavage % (Suc-Nle-Gly-Phe-Dnr): 17% | Relative Cleavage % (Suc-Phe-Gly-Ile-Dnr): 54% | cleavage by carcinoma enzyme preparations (HPLC, 2 hr at 37 C) (Suc-Phe-Gly-Ile-Dnr): cleaved by the trouase under the given conditions | cleavage by carcinoma enzyme preparations (HPLC, 2 hr at 37 C) (Suc-Nle-Ala-Leu-Dnr): cleaved by the trouase under the given conditions | cleavage by carcinoma enzyme preparations (HPLC, 2 hr at 37 C) (Suc-Leu-Thr-Leu-Dnr): cleaved by the trouase under the given conditions | Relative Cleavage % (Suc-Met-Gly-Ile-Dnr): 46% | cleavage by carcinoma enzyme preparations (HPLC, 2 hr at 37 C) (Suc-Met-Gly-Ile-Dnr): cleaved by the trouase under the given conditions | Relative Cleavage % (Suc-Tyr-Ala-Leu-Dnr): 77%

Second part, the molecule after the results:

IC50 (µM), 3H-thymidine incorporation, Namalwa (CD10pos) cells [1]: 17.3 µM | IC50 (µM), 3H-thymidine incorporation, Ramos (CD10pos) cells [1]: 22.7 µM | Ratio of IC50 Ball-1 (CD10neg):Namalwa (CD10pos) [1]: 1 | Ratio of IC50 Ball-1 (CD10neg):Ramos (CD10pos) [1]: 1
Molecule: Suc-Leu-Ala-Gly-Dox [Suc-Leu-Ala-Gly-Dox]

IC50 (µM), 3H-thymidine incorporation, Namalwa (CD10pos) cells [1]: 2.27 µM | IC50 (µM), 3H-thymidine incorporation, Ramos (CD10pos) cells [1]: 2.63 µM | Ratio of IC50 Ball-1 (CD10neg):Namalwa (CD10pos) [1]: 35 | Ratio of IC50 Ball-1 (CD10neg):Ramos (CD10pos) [1]: 30
Molecule: Suc-Leu-Ala-Leu-Dox [Suc-Leu-Ala-Leu-Dox]
